Publication PMC10786891, “Massively parallel profiling of RNA-targeting CRISPR-Cas13d”
Positions count from the first letter of the chain named. Numbers in names are those of the source.

B1: target 1 A9G,U19G (mixed)
RNA 1: CACCCGUGCAAAAAUGCAGGGGUCUAAAACUGAGCGGAUAACCUCUCUAUGG
RNA 2: GGGAAUGGAUCCACAUCUACGAAUUCGUACCAGAGAGAGGUUGUCCGCUCACCGAGAUCGGAAGAGCACACGU
B2: target 1 A9C,A16G (mixed)
RNA 1: B1 RNA 1
RNA 2: B1 RNA 2 with G33U, A36G, G43C
B3: target 1 U10G,U19G (mixed)
RNA 1: B1 RNA 1
RNA 2: B1 RNA 2 with U42G, G43A
B4: target 1 insA 3' of 12,insG 3' of 11 (mixed)
RNA 1: B1 RNA 1
RNA 2: GGGAAUGGAUCCACAUCUACGAAUUCGUACCAUAGAGAGGAUGUAUCCGCUCACCGAGAUCGGAAGAGCACACGU
B5: target 1 G17C,C21U (mixed)
RNA 1: B1 RNA 1
RNA 2: B1 RNA 2 with C31U, G33U, G35C, G43A
B6: target 1 C6G,A20C (mixed)
RNA 1: B1 RNA 1
RNA 2: B1 RNA 2 with A32C, G33U, G43A, C46G
B7: target 1 C2A,A20C (mixed)
RNA 1: B1 RNA 1
RNA 2: B1 RNA 2 with A32C, G33U, G43A, C50A
B8: target 1 insC 3' of 5,insA 3' of 5 (mixed)
RNA 1: B1 RNA 1
RNA 2: B4 RNA 2 with A41U, G43A, A45C, U46C, C47G, G49A
B9: target 1 A20C,C21G (mixed)
RNA 1: B1 RNA 1
RNA 2: B1 RNA 2 with C31G, A32C, G33U, G43A
B10: target 1 del3,del15 (mixed)
RNA 1: B1 RNA 1
RNA 2: GGGAAUGGAUCCACAUCUACGAAUUCGUACCAUAGAAGGUUAUCCGCCACCGAGAUCGGAAGAGCACACGU
B11: target 1 insA 3' of 22,insA 3' of 7 (mixed)
RNA 1: B1 RNA 1
RNA 2: GGGAAUGGAUCCACAUCUACGAAUUCGUACACAUAGAGAGGUUAUCACGCUCACCGAGAUCGGAAGAGCACACGU
B12: target 1 C6A,C21A (mixed)
RNA 1: B1 RNA 1
RNA 2: B1 RNA 2 with C31A, G33U, G43A, C46A
B13: target 1 U8C,A16U (mixed)
RNA 1: B1 RNA 1
RNA 2: B1 RNA 2 with G33U, A36U, G43A, U44C
B14: target 1 U3G,U19C (mixed)
RNA 1: B1 RNA 1
RNA 2: B1 RNA 2 with G33C, G43A, U49G
B15: target 1 insC 3' of 19,insC 3' of 19 (mixed)
RNA 1: B1 RNA 1
RNA 2: B4 RNA 2 with A34C, G35C, G40A, A41G, U42G, G43U
B16: target 1 insA 3' of 15,insU 3' of 14 (mixed)
RNA 1: B1 RNA 1
RNA 2: B4 RNA 2 with G39A, G40U, A41G, U42G, G43U
B17: target 1 insG 3' of 10,insC 3' of 5 (mixed)
RNA 1: B1 RNA 1
RNA 2: B4 RNA 2 with A41U, U44A, A45U, U46C, C48G, G49C
B18: target 1 insU 3' of 7,insG 3' of 7 (mixed)
RNA 1: B1 RNA 1
RNA 2: B4 RNA 2 with A41U, G43A, A45C, C47G
B19: target 1 insG 3' of 20,insC 3' of 19 (mixed)
RNA 1: B1 RNA 1
RNA 2: B4 RNA 2 with U33G, A34U, G35C, G40A, A41G, U42G, G43U
B20: target 1 insA 3' of 11,insA 3' of 8 (mixed)
RNA 1: B1 RNA 1
RNA 2: B4 RNA 2 with A41U, U42A, G43U, U44A, A45U, U46A
B21: target 1 insA 3' of 15,insA 3' of 12 (mixed)
RNA 1: B1 RNA 1
RNA 2: B4 RNA 2 with G39A, A41G, U42A, G43U
B22: target 1 insC 3' of 16,insC 3' of 15 (mixed)
RNA 1: B1 RNA 1
RNA 2: B4 RNA 2 with G37C, A38G, G39C, G40A, A41G, U42G, G43U
B23: target 1 insC 3' of 19,insG 3' of 18 (mixed)
RNA 1: B1 RNA 1
RNA 2: B4 RNA 2 with A34C, G35A, A36G, G40A, A41G, U42G, G43U
B24: target 1 insU 3' of 20,insU 3' of 12 (mixed)
RNA 1: B1 RNA 1
RNA 2: B11 RNA 2 with A31C, C32A, A33U, A44U, U45A, C46U, A47C
B25: target 1 U10A,G12A (mixed)
RNA 1: B1 RNA 1
RNA 2: B1 RNA 2 with G33U, G40A, U42A, G43A
B26: target 1 C2U,U8C (mixed)
RNA 1: B1 RNA 1
RNA 2: B1 RNA 2 with G33U, G43A, U44C, C50U
B27: target 1 insU 3' of 5,insG 3' of 4 (mixed)
RNA 1: B1 RNA 1
RNA 2: B4 RNA 2 with A41U, G43A, A45C, U46C, C47G, C48U, G49C, C50G
B28: target 1 insU 3' of 5,insA 3' of 3 (mixed)
RNA 1: B1 RNA 1
RNA 2: B4 RNA 2 with A41U, G43A, A45C, U46C, C47G, C48U, G49C, C50U, U51A
B29: target 1 insC 3' of 20,insU 3' of 5 (mixed)
RNA 1: B1 RNA 1
RNA 2: B11 RNA 2 with A31C, C32A, A33C, A47C, C48G, G49U
B30: target 1 insG 3' of 14,insG 3' of 14 (mixed)
RNA 1: B1 RNA 1
RNA 2: B4 RNA 2 with A41G, U42G, G43U
B31: target 1 del4 (mixed)
RNA 1: B1 RNA 1
RNA 2: GGGAAUGGAUCCACAUCUACGAAUUCGUACCAUAGAGAGGUUAUCCGUCACCGAGAUCGGAAGAGCACACGU

biological target: T1, EsCas13d, nuclease-dead (Eubacterium siraeum, UniProt B0MS50, R295A;H300A;R849A;H854A); test: crRNA (strand 1, pre-loaded); Mg2+; 40 mM Tris-HCl pH 7.5, 150 mM NaCl, 6 mM MgCl2, 1 mM DTT, 0.1% Tween-20, 0.2 mg/ml BSA; 25 C; 10 min per concentration, then washed; details: tags: His6-TwinStrep-SUMO cleaved; N-terminal SNAP kept (SNAP-Surface 488); label: 3' end held by stalled T7 RNA polymerase
T1 sequence: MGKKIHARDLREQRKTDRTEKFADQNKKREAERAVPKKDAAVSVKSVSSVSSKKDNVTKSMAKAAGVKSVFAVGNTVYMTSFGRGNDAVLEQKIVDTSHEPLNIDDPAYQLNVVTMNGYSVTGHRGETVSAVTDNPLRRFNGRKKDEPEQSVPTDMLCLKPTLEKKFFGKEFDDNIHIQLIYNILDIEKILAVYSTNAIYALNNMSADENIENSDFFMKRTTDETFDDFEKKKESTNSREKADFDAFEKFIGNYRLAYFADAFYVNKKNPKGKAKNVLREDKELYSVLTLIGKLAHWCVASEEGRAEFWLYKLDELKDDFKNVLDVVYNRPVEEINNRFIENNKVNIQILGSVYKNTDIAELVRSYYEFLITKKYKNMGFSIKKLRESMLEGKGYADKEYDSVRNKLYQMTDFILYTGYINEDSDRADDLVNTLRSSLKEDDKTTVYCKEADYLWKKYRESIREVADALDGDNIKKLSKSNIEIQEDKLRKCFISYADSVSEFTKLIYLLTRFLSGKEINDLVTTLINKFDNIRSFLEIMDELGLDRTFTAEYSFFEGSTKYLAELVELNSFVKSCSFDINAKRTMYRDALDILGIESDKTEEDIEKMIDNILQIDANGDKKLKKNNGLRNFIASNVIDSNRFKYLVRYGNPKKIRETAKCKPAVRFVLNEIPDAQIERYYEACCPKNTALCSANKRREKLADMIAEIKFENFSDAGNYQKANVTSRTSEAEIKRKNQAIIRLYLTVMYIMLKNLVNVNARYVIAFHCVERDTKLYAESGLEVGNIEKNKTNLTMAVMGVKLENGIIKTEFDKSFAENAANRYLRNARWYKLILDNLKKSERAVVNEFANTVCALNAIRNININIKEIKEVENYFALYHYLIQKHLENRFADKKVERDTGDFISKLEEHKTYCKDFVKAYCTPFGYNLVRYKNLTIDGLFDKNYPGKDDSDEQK

B1 and B2 are within error of each other in Kd: 49 ± 14 nM for the first, 68 ± 27 nM for the second.

B3 and B4 are within error of each other in Kd: 90 ± 40 nM for the first, 49 ± 6 nM for the second.

Compared with B5, B6 is 4.7-fold higher in Kd: 7.6 ± 0.7 nM for the first, 36 ± 6 nM for the second. The first binds more tightly here.

Compared with B7, B8 is 3.1-fold lower in Kd: 36 ± 4 nM for the first, 11.5 ± 0.5 nM for the second. The second binds more tightly here.

B9 and B10 are within error of each other in Kd: 57 ± 26 nM for the first, 30.2 ± 3.3 nM for the second.

Going from B11 to B12, the Kd rises from 8 ± 0.6 nM to 23.5 ± 1.7 nM (2.9-fold). The first binds more tightly here.

Going from B13 to B14, the Kd falls from 59 ± 8 nM to 25.1 ± 3.4 nM (2.4-fold). The second binds more tightly here.

B15 and B16 are within 1.5-fold of each other in Kd: 29.2 ± 3.5 nM for the first, 21.1 ± 1.8 nM for the second.

Going from B17 to B18, the Kd falls from 46 ± 8 nM to 9.1 ± 0.6 nM (5.1-fold). The second binds more tightly here.

B19 and B20 are within 1.5-fold of each other in Kd: 59 ± 10 nM for the first, 39.7 ± 3.3 nM for the second.

First: B21
Second: B22
The Kd of the first is 2-fold lower: 42 ± 5 nM for the first, 84 ± 27 nM for the second.

Compared with B23, B24 is 7.7-fold lower in Kd: 89 ± 19 nM for the first, 11.5 ± 0.7 nM for the second. The second binds more tightly here.

Compared with B25, B26 is 1.7-fold higher in Kd: 5.86 ± 0.25 nM for the first, 10.1 ± 0.8 nM for the second.

First: B27
Second: B28
The Kd of the first is 1.6-fold lower: 12.7 ± 0.9 nM for the first, 19.9 ± 1.7 nM for the second.

B29 and B30 are within error of each other in Kd: 8.6 ± 0.9 nM for the first, 7.7 ± 0.6 nM for the second.

B31 was tested, and the Kd was 34 ± 7 nM.
